Measured values reported in patent publication US6878804B1, “Synthesis of template-fixed β-hairpin loop mimetics” (University of Zurich, priority 1999, dated 2005).
Non-standard residues stand in square brackets, D forms with d.

T1: platelet-derived growth factor β-receptor (PDGFR-β)
T1 chain: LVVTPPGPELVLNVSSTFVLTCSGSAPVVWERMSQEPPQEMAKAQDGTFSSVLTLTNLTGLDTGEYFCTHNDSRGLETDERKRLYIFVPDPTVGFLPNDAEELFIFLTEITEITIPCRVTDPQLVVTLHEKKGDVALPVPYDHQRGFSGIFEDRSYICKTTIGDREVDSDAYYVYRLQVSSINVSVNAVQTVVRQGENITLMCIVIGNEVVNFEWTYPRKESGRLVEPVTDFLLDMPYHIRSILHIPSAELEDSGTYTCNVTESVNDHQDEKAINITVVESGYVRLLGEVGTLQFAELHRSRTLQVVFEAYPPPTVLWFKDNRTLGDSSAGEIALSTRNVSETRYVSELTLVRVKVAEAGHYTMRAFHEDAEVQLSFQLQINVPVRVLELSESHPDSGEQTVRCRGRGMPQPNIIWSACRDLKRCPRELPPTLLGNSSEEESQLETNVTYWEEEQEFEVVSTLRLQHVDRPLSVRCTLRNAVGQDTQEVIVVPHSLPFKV


Target: T1, platelet-derived growth factor …
Assay: solid-phase competition, displacement of 125I-PDGF-BB from plate-immobilised PDGFR-β

Row | Binder | IC50 [µM]
1 | cyclo(PASVRKKSA[dP]) (SMILES CC(C)[C@@H]1NC(=O)[C@H](CO)NC(=O)[C@H](C)NC(=O)[C@@H]2CCCN2C(=O)[C@H]2CCCN2C(=O)[C@H](C)NC(=O)[C@H](CO)NC(=O)[C@H](CCCCN)NC(=O)[C@H](CCCCN)NC(=O)[C@H](CCCNC(=N)N)NC1=O, also called ^LP-A-S-V-R / ^DP-A-S-K-K) [target cyclic peptide 23] | 2500
2 | cyclo(PAAVRKKAA[dP]) (SMILES CC(C)[C@@H]1NC(=O)[C@H](C)NC(=O)[C@H](C)NC(=O)[C@@H]2CCCN2C(=O)[C@H]2CCCN2C(=O)[C@H](C)NC(=O)[C@H](C)NC(=O)[C@H](CCCCN)NC(=O)[C@H](CCCCN)NC(=O)[C@H](CCCNC(=N)N)NC1=O, also called ^LP-A-A-V-R / ^DP-A-A-K-K) [target cyclic peptide 22] | < 2500
3 | cyclo(PEIVRKKPI[dP]) (SMILES CC[C@H](C)[C@@H]1NC(=O)[C@H](CCC(=O)O)NC(=O)[C@@H]2CCCN2C(=O)[C@H]2CCCN2C(=O)[C@H]([C@@H](C)CC)NC(=O)[C@@H]2CCCN2C(=O)[C@H](CCCCN)NC(=O)[C@H](CCCCN)NC(=O)[C@H](CCCNC(=N)N)NC(=O)[C@H](C(C)C)NC1=O, mimic of PDGF loop III on a diproline template; also called compound 1) [target cyclic peptide 1] | 2200
4 | cyclo(PYAVRKKAY[dP]) (SMILES CC(C)[C@@H]1NC(=O)[C@H](C)NC(=O)[C@H](Cc2ccc(O)cc2)NC(=O)[C@@H]2CCCN2C(=O)[C@H]2CCCN2C(=O)[C@H](Cc2ccc(O)cc2)NC(=O)[C@H](C)NC(=O)[C@H](CCCCN)NC(=O)[C@H](CCCCN)NC(=O)[C@H](CCCNC(=N)N)NC1=O, also called ^LP-Y-A-V-R / ^DP-Y-A-K-K) [target cyclic peptide 10] | 2000
5 | cyclo(PESVRKKSI[dP]) (SMILES CC[C@H](C)[C@@H]1NC(=O)[C@H](CO)NC(=O)[C@H](CCCCN)NC(=O)[C@H](CCCCN)NC(=O)[C@H](CCCNC(=N)N)NC(=O)[C@H](C(C)C)NC(=O)[C@H](CO)NC(=O)[C@H](CCC(=O)O)NC(=O)[C@@H]2CCCN2C(=O)[C@H]2CCCN2C1=O, also called compound 5) [target cyclic peptide 5] | 2500
6 | cyclo(PAKVRKKKA[dP]) (SMILES CC(C)[C@@H]1NC(=O)[C@H](CCCCN)NC(=O)[C@H](C)NC(=O)[C@@H]2CCCN2C(=O)[C@H]2CCCN2C(=O)[C@H](C)NC(=O)[C@H](CCCCN)NC(=O)[C@H](CCCCN)NC(=O)[C@H](CCCCN)NC(=O)[C@H](CCCNC(=N)N)NC1=O, also called ^LP-A-K-V-R / ^DP-A-K-K-K) [target cyclic peptide 24] | 2500
7 | cyclo(PAYVRKKYA[dP]) (SMILES CC(C)[C@@H]1NC(=O)[C@H](Cc2ccc(O)cc2)NC(=O)[C@H](C)NC(=O)[C@@H]2CCCN2C(=O)[C@H]2CCCN2C(=O)[C@H](C)NC(=O)[C@H](Cc2ccc(O)cc2)NC(=O)[C@H](CCCCN)NC(=O)[C@H](CCCCN)NC(=O)[C@H](CCCNC(=N)N)NC1=O, also called ^LP-A-Y-V-R / ^DP-A-Y-K-K) [target cyclic peptide 20] | 2000
8 | cyclo(PEAVRKKAI[dP]) (SMILES CC[C@H](C)[C@@H]1NC(=O)[C@H](C)NC(=O)[C@H](CCCCN)NC(=O)[C@H](CCCCN)NC(=O)[C@H](CCCNC(=N)N)NC(=O)[C@H](C(C)C)NC(=O)[C@H](C)NC(=O)[C@H](CCC(=O)O)NC(=O)[C@@H]2CCCN2C(=O)[C@H]2CCCN2C1=O, also called compound 4) [target cyclic peptide 4] | < 2500
9 | cyclo(PAIVRKKPA[dP]) (SMILES CC[C@H](C)[C@@H]1NC(=O)[C@H](C)NC(=O)[C@@H]2CCCN2C(=O)[C@H]2CCCN2C(=O)[C@H](C)NC(=O)[C@@H]2CCCN2C(=O)[C@H](CCCCN)NC(=O)[C@H](CCCCN)NC(=O)[C@H](CCCNC(=N)N)NC(=O)[C@H](C(C)C)NC1=O, also called ^LP-A-I-V-R / ^DP-A-P-K-K) [target cyclic peptide 19] | < 2500

Further lines, results first:

Row | IC50 [µM] | Binder
10 | 800 | cyclo(PWAVRKKAW[dP]) (SMILES CC(C)[C@@H]1NC(=O)[C@H](C)NC(=O)[C@H](Cc2c[nH]c3ccccc23)NC(=O)[C@@H]2CCCN2C(=O)[C@H]2CCCN2C(=O)[C@H](Cc2c[nH]c3ccccc23)NC(=O)[C@H](C)NC(=O)[C@H](CCCCN)NC(=O)[C@H](CCCCN)NC(=O)[C@H](CCCNC(=N)N)NC1=O, also called ^LP-W-A-V-R / ^DP-W-A-K-K) [target cyclic peptide 16]
11 | 2000 | cyclo(PAWVRKKWA[dP]) (SMILES CC(C)[C@@H]1NC(=O)[C@H](Cc2c[nH]c3ccccc23)NC(=O)[C@H](C)NC(=O)[C@@H]2CCCN2C(=O)[C@H]2CCCN2C(=O)[C@H](C)NC(=O)[C@H](Cc2c[nH]c3ccccc23)NC(=O)[C@H](CCCCN)NC(=O)[C@H](CCCCN)NC(=O)[C@H](CCCNC(=N)N)NC1=O, also called ^LP-A-W-V-R / ^DP-A-W-K-K) [target cyclic peptide 21]
12 | 2000 | cyclo(PYSVRKKSY[dP]) (SMILES CC(C)[C@@H]1NC(=O)[C@H](CO)NC(=O)[C@H](Cc2ccc(O)cc2)NC(=O)[C@@H]2CCCN2C(=O)[C@H]2CCCN2C(=O)[C@H](Cc2ccc(O)cc2)NC(=O)[C@H](CO)NC(=O)[C@H](CCCCN)NC(=O)[C@H](CCCCN)NC(=O)[C@H](CCCNC(=N)N)NC1=O, also called ^LP-Y-S-V-R / ^DP-Y-S-K-K) [target cyclic peptide 11]
13 | 500 | cyclo(PWKVRKKKW[dP]) (SMILES CC(C)[C@@H]1NC(=O)[C@H](CCCCN)NC(=O)[C@H](Cc2c[nH]c3ccccc23)NC(=O)[C@@H]2CCCN2C(=O)[C@H]2CCCN2C(=O)[C@H](Cc2c[nH]c3ccccc23)NC(=O)[C@H](CCCCN)NC(=O)[C@H](CCCCN)NC(=O)[C@H](CCCCN)NC(=O)[C@H](CCCNC(=N)N)NC1=O, also called ^LP-W-K-V-R / ^DP-W-K-K-K) [target cyclic peptide 18]
14 | 1500 | cyclo(PYKVRKKKY[dP]) (SMILES CC(C)[C@@H]1NC(=O)[C@H](CCCCN)NC(=O)[C@H](Cc2ccc(O)cc2)NC(=O)[C@@H]2CCCN2C(=O)[C@H]2CCCN2C(=O)[C@H](Cc2ccc(O)cc2)NC(=O)[C@H](CCCCN)NC(=O)[C@H](CCCCN)NC(=O)[C@H](CCCCN)NC(=O)[C@H](CCCNC(=N)N)NC1=O, also called ^LP-Y-K-V-R / ^DP-Y-K-K-K) [target cyclic peptide 12]
15 | 2000 | cyclo(PEYVRKKYI[dP]) (SMILES CC[C@H](C)[C@@H]1NC(=O)[C@H](Cc2ccc(O)cc2)NC(=O)[C@H](CCCCN)NC(=O)[C@H](CCCCN)NC(=O)[C@H](CCCNC(=N)N)NC(=O)[C@H](C(C)C)NC(=O)[C@H](Cc2ccc(O)cc2)NC(=O)[C@H](CCC(=O)O)NC(=O)[C@@H]2CCCN2C(=O)[C@H]2CCCN2C1=O, also called compound 2) [target cyclic peptide 2]
16 | 170 | cyclo(PWYVRKKYW[dP]) (SMILES CC(C)[C@@H]1NC(=O)[C@H](Cc2ccc(O)cc2)NC(=O)[C@H](Cc2c[nH]c3ccccc23)NC(=O)[C@@H]2CCCN2C(=O)[C@H]2CCCN2C(=O)[C@H](Cc2c[nH]c3ccccc23)NC(=O)[C@H](Cc2ccc(O)cc2)NC(=O)[C@H](CCCCN)NC(=O)[C@H](CCCCN)NC(=O)[C@H](CCCNC(=N)N)NC1=O, also called ^LP-W-Y-V-R / ^DP-W-Y-K-K) [target cyclic peptide 14]
17 | 800 | cyclo(PWSVRKKSW[dP]) (SMILES CC(C)[C@@H]1NC(=O)[C@H](CO)NC(=O)[C@H](Cc2c[nH]c3ccccc23)NC(=O)[C@@H]2CCCN2C(=O)[C@H]2CCCN2C(=O)[C@H](Cc2c[nH]c3ccccc23)NC(=O)[C@H](CO)NC(=O)[C@H](CCCCN)NC(=O)[C@H](CCCCN)NC(=O)[C@H](CCCNC(=N)N)NC1=O, also called ^LP-W-S-V-R / ^DP-W-S-K-K) [target cyclic peptide 17]
18 | 1500 | cyclo(PYIVRKKPY[dP]) (SMILES CC[C@H](C)[C@@H]1NC(=O)[C@H](Cc2ccc(O)cc2)NC(=O)[C@@H]2CCCN2C(=O)[C@H]2CCCN2C(=O)[C@H](Cc2ccc(O)cc2)NC(=O)[C@@H]2CCCN2C(=O)[C@H](CCCCN)NC(=O)[C@H](CCCCN)NC(=O)[C@H](CCCNC(=N)N)NC(=O)[C@H](C(C)C)NC1=O, also called ^LP-Y-I-V-R / ^DP-Y-P-K-K) [target cyclic peptide 7]
19 | 500 | cyclo(PYWVRKKWY[dP]) (also called ^LP-Y-W-V-R / ^DP-Y-W-K-K) [target cyclic peptide 9]
20 | 260 | cyclo(PWIVRKKPW[dP]) (SMILES CC[C@H](C)[C@@H]1NC(=O)[C@H](Cc2c[nH]c3ccccc23)NC(=O)[C@@H]2CCCN2C(=O)[C@H]2CCCN2C(=O)[C@H](Cc2c[nH]c3ccccc23)NC(=O)[C@@H]2CCCN2C(=O)[C@H](CCCCN)NC(=O)[C@H](CCCCN)NC(=O)[C@H](CCCNC(=N)N)NC(=O)[C@H](C(C)C)NC1=O, also called ^LP-W-I-V-R / ^DP-W-P-K-K) [target cyclic peptide 13]
21 | 1500 | cyclo(PEWVRKKWI[dP]) (SMILES CC[C@H](C)[C@@H]1NC(=O)[C@H](Cc2c[nH]c3ccccc23)NC(=O)[C@H](CCCCN)NC(=O)[C@H](CCCCN)NC(=O)[C@H](CCCNC(=N)N)NC(=O)[C@H](C(C)C)NC(=O)[C@H](Cc2c[nH]c3ccccc23)NC(=O)[C@H](CCC(=O)O)NC(=O)[C@@H]2CCCN2C(=O)[C@H]2CCCN2C1=O, also called compound 3) [target cyclic peptide 3]
22 | 800 | cyclo(PYYVRKKYY[dP]) (SMILES CC(C)[C@@H]1NC(=O)[C@H](Cc2ccc(O)cc2)NC(=O)[C@H](Cc2ccc(O)cc2)NC(=O)[C@@H]2CCCN2C(=O)[C@H]2CCCN2C(=O)[C@H](Cc2ccc(O)cc2)NC(=O)[C@H](Cc2ccc(O)cc2)NC(=O)[C@H](CCCCN)NC(=O)[C@H](CCCCN)NC(=O)[C@H](CCCNC(=N)N)NC1=O, also called ^LP-Y-Y-V-R / ^DP-Y-Y-K-K) [target cyclic peptide 8]
